This is an account of results in article PMC3196492, “APOE Genotype-Function Relationship: Evidence of −491 A/T Promoter Polymorphism Modifying Transcription Control but Not Type 2 Diabetes Risk”.

This data set concerns the target ATF4 (human (ORF from 293 cells), UniProt P18848 1-351). The data set can be described thus: EMSA; 1.2 uM ATF4, 3 nM probe; excess unlabeled probe competes completely; supershift with anti-ATF4 at 0.7 uM ATF4; 20 ul EMSA, 3 nM DIG-labeled probe, Roche kit instructions; buffer, salt, pH and temperature not stated. Conditions: protein: recombinant; tags: His-tag; chain copies: 2; label: DIG; blunt. For orientation: Mobility shift assays separate free from complexed probe on a gel.

Sequence of ATF4 (P18848 whole entry): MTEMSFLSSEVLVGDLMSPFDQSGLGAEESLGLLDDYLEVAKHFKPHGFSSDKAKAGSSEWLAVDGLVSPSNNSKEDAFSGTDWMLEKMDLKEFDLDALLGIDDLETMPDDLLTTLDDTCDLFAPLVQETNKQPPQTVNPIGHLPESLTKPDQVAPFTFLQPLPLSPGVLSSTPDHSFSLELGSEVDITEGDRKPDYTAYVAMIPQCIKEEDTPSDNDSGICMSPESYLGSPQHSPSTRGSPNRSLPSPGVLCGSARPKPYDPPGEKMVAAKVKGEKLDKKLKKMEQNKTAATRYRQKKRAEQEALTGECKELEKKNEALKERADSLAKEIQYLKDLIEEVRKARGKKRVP

B1: APOE promoter -491A probe (-521 to -461) (dsDNA)
DNA 1: GTTTCACCATGTTGGCCAGGCTGGTCTCAAACTCCTGACCTTAAGTGATTCGCCCACTGTG
DNA 2: CACAGTGGGCGAATCACTTAAGGTCAGGAGTTTGAGACCAGCCTGGCCAACATGGTGAAAC
In the case of B1, the binding result was “binds”.
